Measured values published in article PMC10501182.

Target: Protein A (ProA)-tagged INTAC (human) (UniProt Q8N201)
Experiment: pull-down; in vitro; ProA-tagged INTAC incubated with the indicated purified subcomplexes and immobilised onto IgG resin, washed, SDS-PAGE and Coomassie blue staining; some lanes with DSIF, NELF, a DNA-RNA scaffold or a PP2A inhibitor added

## human RNA polymerase II overexpressed in Expi293F cells (from UniProt P24928 1-1970; P30876 1-1174; P19387 1-275; P52435 1-117) (complex)
  stoichiometry N: 1
